From PMC8769072, “Proteome‐scale mapping of binding sites in the unstructured regions of the human proteome” (Molecular Systems Biology, 2022)
Where no end group is shown, it is not given here. [ ]: non-standard residue; d: D form. pY = N[C@@H](Cc1ccc(OP(=O)(O)O)cc1)C(=O)O; pT = C[C@@H](OP(=O)(O)O)[C@H](N)C(=O)O; pS = N[C@@H](COP(=O)(O)O)C(=O)O

Biological target: CLTC (clathrin heavy chain 1, Clathrin-propeller domain) (human) (UniProt Q00610)
Assay: fluorescence polarisation; competition: unlabelled peptide in serial dilution against the protein domain (master mix at four times the KD) with its FITC-labelled probe peptide; 50 mM KPO4 or NaPO4 pH 7.5; Ki calculated from IC50

Binder | IC50 | Ki
Ac-YVSGNLIDLCGNQGLP [MITF 256-271 peptide, Y265C] | 220 µM | 100 µM
Ac-LIDLPLIDFCD[pT]PEAHY [GTSE1 645-660 peptide, phosphothreonine] | 87 µM | 34 µM
Ac-YVSGNLIDLYGNQGLP [MITF 256-271 peptide] | 150 µM | 63 µM
Ac-LIDLPLIDFCDTPEAHY [GTSE1 645-660 peptide] | 97 µM | 39 µM

Biological target: KEAP1 Kelch (kelch-like ECH-associated protein 1, Kelch domain) (human) (UniProt Q14145)
Assay: as above

Chain of KEAP1 Kelch (kelch-like ECH-associated protein 1, Kelch domain) (human) (Q14145 whole entry, the tested form may be a part): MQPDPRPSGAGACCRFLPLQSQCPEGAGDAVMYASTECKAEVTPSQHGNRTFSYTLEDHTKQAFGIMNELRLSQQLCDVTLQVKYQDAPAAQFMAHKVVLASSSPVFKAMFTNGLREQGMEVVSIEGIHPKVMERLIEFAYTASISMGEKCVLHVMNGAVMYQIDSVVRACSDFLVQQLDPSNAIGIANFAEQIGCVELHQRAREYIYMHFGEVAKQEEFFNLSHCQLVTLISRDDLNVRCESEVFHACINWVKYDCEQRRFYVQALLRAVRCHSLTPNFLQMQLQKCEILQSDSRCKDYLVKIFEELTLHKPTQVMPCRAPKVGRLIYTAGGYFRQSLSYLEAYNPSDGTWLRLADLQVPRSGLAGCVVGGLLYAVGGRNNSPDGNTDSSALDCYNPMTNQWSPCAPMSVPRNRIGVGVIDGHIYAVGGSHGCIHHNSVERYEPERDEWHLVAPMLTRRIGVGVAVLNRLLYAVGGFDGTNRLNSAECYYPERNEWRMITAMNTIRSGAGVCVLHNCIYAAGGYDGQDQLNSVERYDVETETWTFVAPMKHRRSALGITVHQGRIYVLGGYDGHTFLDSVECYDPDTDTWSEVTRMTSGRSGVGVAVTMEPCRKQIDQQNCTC

Binder | IC50 | Ki
Ac-YDEETGEFLPIQPAQH-NH2 [NFE2L2 77-91 peptide with an extra N-terminal Y, wild type] | 0.31 µM | 0.071 µM
YDPVTGEWKSLAKLPE-NH2 [KLHL24 335-350 peptide] | 80 µM | 19 µM
Ac-YDEEKGEFLPIQPAQH-NH2 [NFE2L2 77-91 peptide with an extra N-terminal Y, T80K] | 2540 µM | 611 µM
Ac-LIYVDKENGEPGTRVV-NH2 [PTTG1 4-19 peptide] | 3 µM | –
Ac-GIIDPSTGERFPVTDY-NH2 [PLEC 4457-4471 peptide with an extra C-terminal Y, wild type] | 1.5 µM | 0.49 µM
IDPSTGERFPVTDAVN-NH2 [PLEC 4459-4474 peptide] | 6.1 µM | 1.5 µM
Ac-YDEKTGEFLPIQPAQH-NH2 [NFE2L2 77-91 peptide with an extra N-terminal Y, E79K] | 1650 µM | 397 µM
GFDAVTGEFTGMPEQW-NH2 [PAK1 88-103 peptide] | 44 µM | 11 µM

Biological target: KPNB1 HEAT (importin subunit beta-1, HEAT repeat) (human) (UniProt Q14974)
Assay: as above

Chain of KPNB1 HEAT (importin subunit beta-1, HEAT repeat) (human) (Q14974 whole entry): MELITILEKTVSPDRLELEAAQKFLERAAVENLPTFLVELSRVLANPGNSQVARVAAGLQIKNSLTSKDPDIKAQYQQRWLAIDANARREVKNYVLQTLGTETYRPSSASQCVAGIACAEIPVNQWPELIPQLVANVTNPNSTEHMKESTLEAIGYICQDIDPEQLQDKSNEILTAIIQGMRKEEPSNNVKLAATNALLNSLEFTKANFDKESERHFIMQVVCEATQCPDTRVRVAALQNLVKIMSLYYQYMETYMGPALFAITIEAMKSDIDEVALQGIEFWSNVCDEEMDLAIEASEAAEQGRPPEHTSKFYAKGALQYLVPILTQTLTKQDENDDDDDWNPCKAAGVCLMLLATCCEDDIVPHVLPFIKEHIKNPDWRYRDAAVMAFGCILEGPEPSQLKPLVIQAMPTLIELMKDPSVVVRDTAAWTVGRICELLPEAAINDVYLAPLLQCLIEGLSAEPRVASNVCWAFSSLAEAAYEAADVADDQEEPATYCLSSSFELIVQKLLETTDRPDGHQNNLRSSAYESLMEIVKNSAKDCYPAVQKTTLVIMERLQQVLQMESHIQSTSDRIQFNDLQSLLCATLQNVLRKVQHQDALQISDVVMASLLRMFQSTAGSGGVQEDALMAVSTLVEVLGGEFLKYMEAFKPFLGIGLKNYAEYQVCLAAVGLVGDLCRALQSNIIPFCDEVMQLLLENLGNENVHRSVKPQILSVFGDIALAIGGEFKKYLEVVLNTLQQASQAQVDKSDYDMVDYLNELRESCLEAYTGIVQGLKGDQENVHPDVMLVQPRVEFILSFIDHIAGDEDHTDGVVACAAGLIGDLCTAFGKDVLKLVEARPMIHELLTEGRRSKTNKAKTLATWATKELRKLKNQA

Binder | IC50 | Ki
Ac-AYAPPVFVFQKDKGQK-NH2 [RANBP3 11-26 peptide] | 2.2 mM | –
Ac-NPPVATFVFGQSSNPY-NH2 [NUP153 1220-1234 peptide with an extra C-terminal Y] | 0.049 mM | 11 µM

Biological target: MDM2 SWIB (E3 ubiquitin-protein ligase MDM2, SWIB domain) (human) (UniProt Q00987)
Assay: as above

Chain of MDM2 SWIB (E3 ubiquitin-protein ligase MDM2, SWIB domain) (human) (Q00987 whole entry, the tested form may be a part): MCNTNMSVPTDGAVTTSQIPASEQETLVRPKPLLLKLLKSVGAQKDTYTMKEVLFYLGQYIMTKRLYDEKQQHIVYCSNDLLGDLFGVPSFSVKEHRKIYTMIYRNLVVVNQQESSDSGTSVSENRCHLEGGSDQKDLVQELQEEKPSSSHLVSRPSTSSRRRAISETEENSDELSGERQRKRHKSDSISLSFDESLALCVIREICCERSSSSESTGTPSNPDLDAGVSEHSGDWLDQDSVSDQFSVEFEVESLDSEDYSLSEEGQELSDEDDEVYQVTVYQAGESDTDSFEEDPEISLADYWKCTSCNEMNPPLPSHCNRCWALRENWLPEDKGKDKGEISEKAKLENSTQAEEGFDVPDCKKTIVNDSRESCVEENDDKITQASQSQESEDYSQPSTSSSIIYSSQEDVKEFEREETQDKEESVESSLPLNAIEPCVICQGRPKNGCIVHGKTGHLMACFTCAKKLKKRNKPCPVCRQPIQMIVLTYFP

Binder | IC50 | Ki
TPEDDRSFQTVWATVF [KIAA1671 600-615 peptide] | 73 µM | 1760 nM
THFAELWGHLDHTMFF [RNF115 69-84 peptide] | 9 µM | –
GFEAQWAALENKSKQR [NUMB 616-630 peptide with an added N-terminal G] | 130 µM | –

Biological target: TLN1 PTB (talin-1, phosphotyrosine binding-like domain) (human) (UniProt Q9Y490)
Assay: as above

Chain of TLN1 PTB (talin-1, phosphotyrosine binding-like domain) (human) (Q9Y490 whole entry, the tested form may be a part): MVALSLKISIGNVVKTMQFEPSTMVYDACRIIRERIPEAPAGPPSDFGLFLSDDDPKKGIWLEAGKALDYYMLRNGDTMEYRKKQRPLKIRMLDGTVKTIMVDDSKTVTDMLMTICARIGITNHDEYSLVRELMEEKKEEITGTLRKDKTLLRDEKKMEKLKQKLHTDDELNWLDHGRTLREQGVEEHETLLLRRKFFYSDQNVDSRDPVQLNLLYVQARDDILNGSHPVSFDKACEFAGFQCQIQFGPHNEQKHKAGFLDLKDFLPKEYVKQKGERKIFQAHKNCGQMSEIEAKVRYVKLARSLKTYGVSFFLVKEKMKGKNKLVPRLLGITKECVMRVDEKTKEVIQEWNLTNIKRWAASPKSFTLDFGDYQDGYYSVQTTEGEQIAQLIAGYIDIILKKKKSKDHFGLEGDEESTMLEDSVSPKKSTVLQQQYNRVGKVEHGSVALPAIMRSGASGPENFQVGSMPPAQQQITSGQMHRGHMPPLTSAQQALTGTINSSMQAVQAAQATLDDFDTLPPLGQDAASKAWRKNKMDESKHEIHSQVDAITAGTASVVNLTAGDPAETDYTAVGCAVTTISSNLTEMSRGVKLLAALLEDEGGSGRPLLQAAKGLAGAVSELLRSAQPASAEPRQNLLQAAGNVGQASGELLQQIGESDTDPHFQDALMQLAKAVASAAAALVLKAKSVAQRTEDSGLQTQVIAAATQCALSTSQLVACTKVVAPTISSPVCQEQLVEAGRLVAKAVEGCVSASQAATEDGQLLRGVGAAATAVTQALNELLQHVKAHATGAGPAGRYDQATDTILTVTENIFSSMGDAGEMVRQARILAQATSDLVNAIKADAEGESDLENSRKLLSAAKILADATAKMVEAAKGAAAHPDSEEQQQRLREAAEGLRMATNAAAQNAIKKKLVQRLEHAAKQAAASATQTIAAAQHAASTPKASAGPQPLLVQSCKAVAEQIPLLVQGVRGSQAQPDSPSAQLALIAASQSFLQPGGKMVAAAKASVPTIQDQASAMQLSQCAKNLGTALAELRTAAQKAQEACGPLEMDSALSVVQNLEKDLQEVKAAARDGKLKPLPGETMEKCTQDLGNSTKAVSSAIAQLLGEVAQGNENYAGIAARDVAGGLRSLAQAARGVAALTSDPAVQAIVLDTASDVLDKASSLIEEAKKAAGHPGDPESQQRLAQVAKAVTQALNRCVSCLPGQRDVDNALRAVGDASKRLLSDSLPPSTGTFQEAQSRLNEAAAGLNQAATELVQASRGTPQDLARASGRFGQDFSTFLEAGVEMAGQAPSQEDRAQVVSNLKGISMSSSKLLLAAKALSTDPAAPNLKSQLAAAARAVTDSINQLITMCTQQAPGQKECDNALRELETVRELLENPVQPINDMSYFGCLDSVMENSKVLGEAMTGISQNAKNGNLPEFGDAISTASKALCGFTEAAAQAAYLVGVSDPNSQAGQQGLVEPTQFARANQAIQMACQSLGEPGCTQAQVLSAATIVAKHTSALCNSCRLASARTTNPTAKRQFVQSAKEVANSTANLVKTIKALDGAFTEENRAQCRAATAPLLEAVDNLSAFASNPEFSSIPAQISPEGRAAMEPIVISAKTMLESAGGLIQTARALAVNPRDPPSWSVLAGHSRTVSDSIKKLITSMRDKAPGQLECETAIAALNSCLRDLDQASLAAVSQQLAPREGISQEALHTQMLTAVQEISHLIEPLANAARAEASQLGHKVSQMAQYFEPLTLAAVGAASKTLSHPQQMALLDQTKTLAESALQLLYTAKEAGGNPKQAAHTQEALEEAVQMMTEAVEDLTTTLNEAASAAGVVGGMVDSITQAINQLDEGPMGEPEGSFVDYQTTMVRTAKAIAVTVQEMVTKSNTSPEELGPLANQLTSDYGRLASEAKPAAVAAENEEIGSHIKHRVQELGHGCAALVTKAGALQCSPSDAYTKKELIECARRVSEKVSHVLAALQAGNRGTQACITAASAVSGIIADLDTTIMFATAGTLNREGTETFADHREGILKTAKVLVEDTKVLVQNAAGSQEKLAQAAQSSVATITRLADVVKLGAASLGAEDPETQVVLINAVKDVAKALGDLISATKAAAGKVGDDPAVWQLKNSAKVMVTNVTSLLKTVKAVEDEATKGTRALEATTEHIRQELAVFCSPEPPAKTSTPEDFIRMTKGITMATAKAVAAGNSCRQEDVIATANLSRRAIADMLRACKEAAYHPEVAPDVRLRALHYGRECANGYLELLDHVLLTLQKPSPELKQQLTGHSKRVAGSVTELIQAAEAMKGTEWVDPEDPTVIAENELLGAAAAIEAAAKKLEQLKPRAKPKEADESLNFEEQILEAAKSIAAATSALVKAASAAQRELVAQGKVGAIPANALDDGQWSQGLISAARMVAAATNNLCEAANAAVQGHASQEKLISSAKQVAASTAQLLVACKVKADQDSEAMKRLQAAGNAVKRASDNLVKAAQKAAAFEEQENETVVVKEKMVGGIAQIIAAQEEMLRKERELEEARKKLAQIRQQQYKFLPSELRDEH

Binder | IC50 | Ki
AKWDTANNPLYKEATS-NH2 [Integrin beta-3 763-778 peptide] | 1430 µM | 480 µM
DLIFTDSKLYIPLE-NH2 [TPTE 112-125 peptide] | 15 µM | 4.9 µM
FPTDERSWVYSPLHYS-NH2 [PIP5K1C 640-655 peptide, unlabelled] | 0.42 µM | 0.066 µM
VGPLTPLWTYPATAAG-NH2 [NYAP1 542-557 peptide] | 62 µM | 20 µM

Biological target: KPNA4 ARM (importin subunit alpha-3, armadillo repeat domain) (human) (UniProt O00629)
Assay: fluorescence polarisation; competition: unlabelled peptide in serial dilution against KPNA4 ARM (master mix at four times the KD) with the probe FITC-Myc(320-328), probe of the major pocket; 50 mM KPO4 pH 7.5; Ki calculated from IC50

Chain of KPNA4 ARM (importin subunit alpha-3, armadillo repeat domain) (human) (O00629 whole entry, the tested form may be a part): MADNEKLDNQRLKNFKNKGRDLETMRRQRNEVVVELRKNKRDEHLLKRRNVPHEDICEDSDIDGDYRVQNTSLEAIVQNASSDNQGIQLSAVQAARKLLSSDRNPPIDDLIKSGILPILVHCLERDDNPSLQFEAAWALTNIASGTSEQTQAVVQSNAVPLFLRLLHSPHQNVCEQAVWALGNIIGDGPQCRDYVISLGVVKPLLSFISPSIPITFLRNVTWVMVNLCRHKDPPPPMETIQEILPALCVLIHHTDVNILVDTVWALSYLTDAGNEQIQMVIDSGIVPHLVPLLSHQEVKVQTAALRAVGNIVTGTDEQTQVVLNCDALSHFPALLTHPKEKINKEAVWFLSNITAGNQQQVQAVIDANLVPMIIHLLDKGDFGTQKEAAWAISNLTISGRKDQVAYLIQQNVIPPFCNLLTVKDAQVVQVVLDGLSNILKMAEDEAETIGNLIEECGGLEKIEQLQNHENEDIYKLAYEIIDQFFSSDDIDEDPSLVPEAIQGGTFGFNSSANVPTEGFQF

Binder | IC50 | Ki
DHQFPAKRPRLSEPQG-NH2 [HJURP 675-690 peptide] | 76 nM | 38 nM
IPEKKQRLEEATTICL-NH2 [AFF2 864-879 peptide] | 2300 nM | 1500 nM
VEPETKRLKLAASEDH-NH2 [ZRANB3 571-586 peptide] | 240 nM | 140 nM
EDSIEPPHKRLCLSSE-NH2 [DMTF1 44-59 peptide] | 130 nM | 75 nM
Ac-YKCRRQRQDQTLELVGL-NH2 [NKX2-5 192-207 peptide, K194R] | 98000 nM | 63000 nM
ERENPSKRSRIERDID-NH2 [CTDSPL2 64-79 peptide] | 1900 nM | 1200 nM
DLKRRLDSITSSQSSA-NH2 [KDR 958-973 peptide] | 22000 nM | 14000 nM
Ac-YKCKRQRQDQTLELVGL-NH2 [NKX2-5 192-207 peptide, wild type] | 2200 nM | 6800 nM

Biological target: KPNA4 ARM (importin subunit alpha-3, armadillo repeat domain) (human) (UniProt O00629)
Assay: fluorescence polarisation; competition: unlabelled peptide in serial dilution against KPNA4 ARM (master mix at four times the KD) with the probe FITC-NCOR2(1307-1322), probe of the minor pocket; 50 mM KPO4 pH 7.5; Ki calculated from IC50

Binder | IC50 | Ki
Ac-EI[pS]LKRSYESVEGNIK-NH2 (SMILES CC[C@H](C)[C@H](NC(=O)[C@H](CC(N)=O)NC(=O)CNC(=O)[C@H](CCC(=O)O)NC(=O)[C@@H](NC(=O)[C@H](CO)NC(=O)[C@H](CCC(=O)O)NC(=O)[C@H](Cc1ccc(O)cc1)NC(=O)[C@H](CO)NC(=O)[C@H](CCCNC(=N)N)NC(=O)[C@H](CCCCN)NC(=O)[C@H](CC(C)C)NC(=O)[C@H](COP(=O)(O)O)NC(=O)[C@@H](NC(=O)[C@H](CCC(=O)O)NC(C)=O)[C@@H](C)CC)C(C)C)C(=O)N[C@@H](CCCCN)C(N)=O) [NCOR1 1240-1255 peptide, pS1242] | 31 µM | 10 µM
STMKRKHDEIQRSLPV-NH2 [ZBED9 651-666 peptide] | 2.4 µM | 0.77 µM
DHQFPAKRPRLSEPQG-NH2 [HJURP 675-690 peptide] | 170 µM | 63 µM
AGVKRSAAEMYGSVTE-NH2 [HNRNPC 95-110 peptide] | 0.5 µM | 0.093 µM
IPEKKQRLEEATTICL-NH2 [AFF2 864-879 peptide] | 3800 µM | 1420 µM
GVKRTYSEVYPGQQYL-NH2 [ZMIZ2 264-279 peptide] | 0.43 µM | 0.054 µM
DLKRRLDSITSSQSSA-NH2 [KDR 958-973 peptide] | 24 µM | 8.9 µM
GKKRTFDETVSTYVPL-NH2 [TPX2 312-327 peptide] | 0.41 µM | 0.047 µM
Ac-EISLKRSYESVEGNIK-NH2 [NCOR1 1240-1255 peptide, unphosphorylated] | 11 µM | 3.6 µM
ELKRKLEQEQKLVEVL-NH2 [MKL2 572-587 peptide] | 36 µM | 13 µM
Ac-EISLKR[pS]YESVEGNIK-NH2 (SMILES CC[C@H](C)[C@H](NC(=O)[C@H](CC(N)=O)NC(=O)CNC(=O)[C@H](CCC(=O)O)NC(=O)[C@@H](NC(=O)[C@H](CO)NC(=O)[C@H](CCC(=O)O)NC(=O)[C@H](Cc1ccc(O)cc1)NC(=O)[C@H](COP(=O)(O)O)NC(=O)[C@H](CCCNC(=N)N)NC(=O)[C@H](CCCCN)NC(=O)[C@H](CC(C)C)NC(=O)[C@H](CO)NC(=O)[C@@H](NC(=O)[C@H](CCC(=O)O)NC(C)=O)[C@@H](C)CC)C(C)C)C(=O)N[C@@H](CCCCN)C(N)=O) [NCOR1 1240-1255 peptide, pS1246] | 240 µM | 81 µM
PFKRPHSTISDSSTSS-NH2 [PLEKHG4B 1183-1198 peptide] | 3.6 µM | 1.2 µM
Ac-EISLKRS[pY]ESVEGNIK-NH2 (SMILES CC[C@H](C)[C@H](NC(=O)[C@H](CC(N)=O)NC(=O)CNC(=O)[C@H](CCC(=O)O)NC(=O)[C@@H](NC(=O)[C@H](CO)NC(=O)[C@H](CCC(=O)O)NC(=O)[C@H](Cc1ccc(OP(=O)(O)O)cc1)NC(=O)[C@H](CO)NC(=O)[C@H](CCCNC(=N)N)NC(=O)[C@H](CCCCN)NC(=O)[C@H](CC(C)C)NC(=O)[C@H](CO)NC(=O)[C@@H](NC(=O)[C@H](CCC(=O)O)NC(C)=O)[C@@H](C)CC)C(C)C)C(=O)N[C@@H](CCCCN)C(N)=O) [NCOR1 1240-1255 peptide, pY1247] | 21 µM | 6.8 µM
PKRTYDMMEGRVGRAI-NH2 [NCOR2 1307-1322 peptide, unlabelled] | 0.12 µM | –
SLAPVKRTYEQMEFPL-NH2 [ADNP 711-726 peptide] | 1.3 µM | 0.38 µM
